Results: US20230002496A1 (STAIDSON BEIJING BIOPHARMACEUTICALS, published 2023)
Residue numbers refer to the chain shown, from its start.

T1: human GM-CSFRα, full length on cells (human, UniProt P15509 23-400)
T1 sequence: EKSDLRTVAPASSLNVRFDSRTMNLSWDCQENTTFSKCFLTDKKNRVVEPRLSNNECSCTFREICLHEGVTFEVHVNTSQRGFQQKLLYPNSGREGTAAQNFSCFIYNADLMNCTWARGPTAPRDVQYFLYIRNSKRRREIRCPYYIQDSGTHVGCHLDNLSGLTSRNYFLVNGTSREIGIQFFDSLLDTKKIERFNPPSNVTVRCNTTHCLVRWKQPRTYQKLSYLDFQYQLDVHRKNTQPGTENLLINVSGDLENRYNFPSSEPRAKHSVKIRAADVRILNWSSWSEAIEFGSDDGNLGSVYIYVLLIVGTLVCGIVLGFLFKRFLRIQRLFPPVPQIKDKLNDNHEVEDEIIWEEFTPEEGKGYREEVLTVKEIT

T2: human GM-CSFRα-6His (human, UniProt P15509 23-320)
T2 construct: pTT5-GMRa-6his (ECD), made in 293F cells; also called GMRah; GMRa-6his(ECD)
T2 sequence: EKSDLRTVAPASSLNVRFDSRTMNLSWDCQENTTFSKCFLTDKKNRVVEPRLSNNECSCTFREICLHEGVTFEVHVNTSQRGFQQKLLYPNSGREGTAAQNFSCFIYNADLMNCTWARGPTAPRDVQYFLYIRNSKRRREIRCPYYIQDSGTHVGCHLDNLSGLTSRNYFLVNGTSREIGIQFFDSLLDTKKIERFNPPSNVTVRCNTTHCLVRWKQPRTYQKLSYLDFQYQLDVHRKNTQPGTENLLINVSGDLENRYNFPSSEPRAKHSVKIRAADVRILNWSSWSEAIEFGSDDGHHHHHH

B1: E35-scFv LS26M (scFv, V domains shown)
VH: QMQLVQSGAEVKKPGASVKVSCKVSGYTLTELSIHWVRQAPGKGLEWMGGFDPEDGETIYAQKFQGRVTMTGDTSTDTAYLELSSLRSEDTALYYCATGRYTSLATTYGFDYWGQGTLVTVSS
VL: EIVMTQSPATLSLSPGERATLSCRAMQSVSSYLAWYQQKPGQAPRLLIYGASSRATGIPDRFSGSGSGTDFTLTISRLEPEDFAVYYCQQYDNWPYTFGQGTKLEIK
B2: E35-scFv LQ27P (scFv, V domains shown)
VH: B1 VH
VL: B1 VL with M26S, Q27P
B3: E35-scFv LS31A (scFv, V domains shown)
VH: B1 VH
VL: B1 VL with M26S, S31A
B4: E35-scFv LQ27L (scFv, V domains shown)
VH: B1 VH
VL: B1 VL with M26S, Q27L
B5: E35-scFv LS31T (scFv, V domains shown)
VH: B1 VH
VL: B1 VL with M26S, S31T
B6: E35-scFv LQ27C (scFv, V domains shown)
VH: B1 VH
VL: B1 VL with M26S, Q27C
B7: E35-scFv LQ27A (scFv, V domains shown)
VH: B1 VH
VL: B1 VL with M26S, Q27A
B8: E35-scFv LS26H (scFv, V domains shown)
VH: B1 VH
VL: B1 VL with M26H
B9: E35-scFv LQ27T (scFv, V domains shown)
VH: B1 VH
VL: B1 VL with M26S, Q27T
B10: E35-scFv LQ27V (scFv, V domains shown)
VH: B1 VH
VL: B1 VL with M26S, Q27V
B11: E35-scFv LS26C (scFv, V domains shown)
VH: B1 VH
VL: B1 VL with M26C
B12: E35-scFv LQ27F (scFv, V domains shown)
VH: B1 VH
VL: B1 VL with M26S, Q27F
B13: E35-scFv LS31M (scFv, V domains shown)
VH: B1 VH
VL: B1 VL with M26S, S31M
B14: E35-scFv LQ27I (scFv, V domains shown)
VH: B1 VH
VL: B1 VL with M26S, Q27I
B15: E35-scFv LQ27E (scFv, V domains shown)
VH: B1 VH
VL: B1 VL with M26S, Q27E
B16: E35-scFv LQ27Y (scFv, V domains shown)
VH: B1 VH
VL: B1 VL with M26S, Q27Y
B17: E35-scFv LS31P (scFv, V domains shown)
VH: B1 VH
VL: B1 VL with M26S, S31P
B18: E35-scFv LS31Q (scFv, V domains shown)
VH: B1 VH
VL: B1 VL with M26S, S31Q
B19: E35-scFv LQ27S (scFv, V domains shown)
VH: B1 VH
VL: B1 VL with M26S, Q27S
B20: E35-scFv LS31H (scFv, V domains shown)
VH: B1 VH
VL: B1 VL with M26S, S31H
B21: E35-scFv LQ27R (scFv, V domains shown)
VH: B1 VH
VL: B1 VL with M26S, Q27R
B22: E35-scFv LS31R (scFv, V domains shown)
VH: B1 VH
VL: B1 VL with M26S, S31R
B23: E35-VH28H-VL30L-93D-IG4 (antibody, IgG4, V domains shown)
VH: B1 VH with T28H
VL: B1 VL with M26S, S30L, N93D
B24: E35-VH28H-VL30C-IG4 (antibody, IgG4, V domains shown)
VH: B1 VH with T28H
VL: B1 VL with M26S, S30C
B25: E35-VH28E-VL30L-IG4 (antibody, IgG4, V domains shown)
VH: B1 VH with T28E
VL: B1 VL with M26S, S30L
B26: E35-VH28H-IG4 (antibody, IgG4, V domains shown)
VH: B1 VH with T28H
VL: B1 VL with M26S
B27: E35-VH28E-VL30C-IG4 (antibody, IgG4, V domains shown)
VH: B1 VH with T28E
VL: B1 VL with M26S, S30C
B28: E35-VH28H-VL30L-IG4 (antibody, IgG4, V domains shown)
VH: B1 VH with T28H
VL: B1 VL with M26S, S30L
B29: E35-VH28H-VL93L-IG4 (antibody, IgG4, V domains shown)
VH: B1 VH with T28H
VL: B1 VL with M26S, N93L
B30: E35-VH28E-IG4 (antibody, IgG4, V domains shown)
VH: B1 VH with T28E
VL: B1 VL with M26S
B31: E35-VL93D-IG4 (antibody, IgG4, V domains shown)
VH: B1 VH
VL: B1 VL with M26S, N93D
B32: E01-IgG1 (antibody, V domains shown)
VH: B1 VH with Y27H, I59N, F64S, T102C, L104T, A105D, T107C
VL: B1 VL with M26S, Y96P
notes: human IgG1, human kappa; also called E1
B33: E172-IgG1 (antibody, V domains shown)
VH: B1 VH with I34M, T102A, S103N, A105Y, T106N, T107N
VL: B1 VL with M26S, D92N, Y96P
notes: human IgG1, human kappa
B34: E83-IgG1 (antibody, V domains shown)
VH: B1 VH with F64S, T102C, S103F, L104Y, A105D, T106L, T107C
VL: B1 VL with M26S, D92S, W94S, Y96P
notes: human IgG1, human kappa
B35: E88-IgG1 (antibody, V domains shown)
VH: B1 VH with Y27H, I34M, T102C, S103H, L104K, A105D, T106G, T107C
VL: B1 VL with M26S, N93S, W94S, Y96H
notes: human IgG1, human kappa
B36: E164-IgG1 (antibody, V domains shown)
VH: B1 VH with Y27H, I34M, F64S, S103N, L104D, A105F, T106A, T107N
VL: B1 VL with M26S, D92N
notes: human IgG1, human kappa
B37: E31-IgG1 (antibody, V domains shown)
VH: B1 VH with F64S, T102S, S103E, L104S, A105F, T106A, T107S
VL: B1 VL with M26S
notes: human IgG1, human kappa
B38: E84-IgG1 (antibody, V domains shown)
VH: B1 VH with I34M, F64S, S103R, L104G, A105W, T106F, T107N
VL: B1 VL with M26S, D92N
notes: human IgG1, human kappa
B39: E90-IgG1 (antibody, V domains shown)
VH: B1 VH with F64S, S103G, A105Y, T106A, T107S
VL: B1 VL with M26S
notes: human IgG1, human kappa
B40: E61-IgG1 (antibody, V domains shown)
VH: B1 VH with I34M, T102A, S103W, L104T, A105D, T106I, T107A
VL: B1 VL with M26S, W94S, Y96S
notes: human IgG1, human kappa

target: T1, human GM-CSFRα, full length on cells; assay: cell-based or functional assay

Binder | IC50, TF-1 cell proliferation [mg/L]
B1 | 0.089
B2 | 0.097
B3 | 0.078
B4 | 0.128
B5 | 0.06
B6 | 0.142
B7 | 0.104
B8 | 0.089
B9 | 0.113
B10 | 0.12
B11 | 0.114
B12 | 0.113
B13 | 0.156
B14 | 0.105
B15 | 0.135
B16 | 0.065
B17 | 0.139
B18 | 0.117
B19 | 0.138
B20 | 0.106
B21 | 0.117
B22 | 0.069

target: T1, human GM-CSFRα, full length on cells; assay: cell-based or functional assay; remark: another data set of the same source

Binder | IC50, TF-1 cell proliferation [mg/L]
B23 | 0.0241
B24 | 0.0431
B25 | 0.0268
B26 | 0.0569
B27 | 0.0208
B28 | 0.0296
B29 | 0.0163
B30 | 0.0307
B31 | 0.0371

target: T2, human GM-CSFRα-6His; assay: ELISA on human GM-CSFRα, antibodies as human IgG1; x axis 'Log Ab concentration', no unit

Binder | binding result
B32 | binds
B33 | binds
B34 | binds
B35 | binds
B36 | binds
B37 | binds
B38 | binds
B39 | binds
B40 | binds
